B1: FAS-associated death domain protein (Homo sapiens), Q13158 (parent)
chain: MDPFLVLLHSVSSSLSSSELTELKFLCLGRVGKRKLERVQSGLDLFSMLLEQNDLEPGHTELLRELLASLRRHDLLRRVDDFEAGAAAGAAPGEEDLCAAFNVICDNVGKDWRRLARQLKVSDTKIDSIEDRYPRNLTERVRESLRIWKNTEKENATVAHLVGALRSCQMNLVADLVQEVQQARDLQNRSGAMSPMSWNSDASTSEAS

Variants of: B1
Conditions: with FAS

| Variant | effect of a mutation on the interaction |
| --- | --- |
| MDPFLVLLHSVSSSLSSSELTELKFLCLGRVGKRKLERVQSGLDLFSMLLEQNDLEPGHTELLRELLASLRRHDLLRRVDDFEAGAAAGAAPGEEDLCAAFNVICDNVGKDWRRLARQLKVSDTKIDSIEDRYPRNLTERVRESLRIWKNTEKENATVAHLVGALRSCQMNEVADLVQEVQQARDLQNRSGAMSPMSWNSDASTSEAS [L172E] | decreasing interaction |
